Assay: soluble on expression in E. coli; label from the status in PepcDB or PDB records

Soluble on expression in E. coli, not soluble:
MGSDKIHHHHHHMFSEGENVAKATIPLALESAEKNLETSNENEKARRSSSDTAISVRGISKCYQIYDAPRDRLKQFIIPRLRLARQQSRQYFREFWALKGISFEVRKGETVGIIGRNGSGKSTLLQIICGTLTPTAGSVETRGRIAALLELGSGFNPEFTGRENIYMNGAVLGLTREEIDDRFDSIVSFADIGQFIDQPVKTYSSGMSVRLAFAVQAQVDPDILIVDEALSVGDVRFQAKCFARLQQLKDNGTSVLLVTHSSEQIVTHCSSALLLNDGMQFEIGEPRHVVNRYLDLLFGKERRNPDSPQAQPGDIFQEDKGYAESAYQLSTDSDVFQTRNGYNTHEYRWGDGTASILDFYLAANGEPYPSAITVGQTVTLAVSIKFHSDMWRPILGITIKTKDGVTISGTNSEMADLLDLQALVKKGAILVGKCSFQCRLGPGDYFVSLGLATRENDEIIPHDRRYDSIHFIVEPHNKFHGLADLALDLSISHIVESNQI
MGSDKIHHHHHHMFSIAIQQQQYKTYILSDETTGSQLEVVPERGGIITRWRVKGEEILYLDAERFTHPDLSVRGGVPILFPICGNLPDNSYTLNGQQYTLKQHGFARDLPWEVVEQTTKDTAALTLVLRSNEQTKAVYPFDFQLVFTYVLQGNTLEIRQEYQNLSSTQLPFSAGFHPYFLTGDKNQLEFDIPSQEYQDQQTKEVHPFNGNFDFNRDEMDFAFGHITSQSASVIDRNRQFKLTLDADDIFSMLVFWTLKGKEFYCLEPWSAPRNSLNTGEKLTVLEPGTSYKASVRLSASFF
MGSDKIHHHHHHMFTDYVLLLFSTTPRRAKGLFNVLRGRRTVSTLFAGLTAGYLDLLDSCHEVPLEDFMAATAALTENGQLTSTATGCWQLTQAGEHRQAKLRQTLYMPQNFEVFQTTDVRRFRIVSQLALQVVSELVHHDRHYYPVTTDPGIQAQVKQWLRQQSKVELGEQIHAALTAFLTSLADPELPTVFVQGITGYQEPGLTNEQLAAQLGRQPWEASLMHTDVICQWIAWIQRHPRDPFSQLLSVLTQASAISQSAEQTYQAFLKTQQLAAIAQTRHLKMSTVREHLLEVAIWSPDFPFEMVLNHEITQQLATIFAAQPDIANWSFQEAQAALPTLDFFEFRLFQIMRCQHVRR
MGSDKIHHHHHHMFVGFDYGSANCAVGIMQGDEVSLLPLSTDSAYLPSTLYAMDRELIAEAVYRALPAELKADYAKKRAAQLSRARMVRHELDLDAESPAVFVGEQAVAAYLEMPEEGFYVRSPKSFLGATGLRPEQVALFEDIVTLMMQHIKVRAEAVLVQKGMASKDEARITHAVIGRPVNFQGIGGEESNRQAEAILTLAAKRAGFVDVAFLFEPLAAGMDYEAGLKADQTVLVVDVGGGTTDCSVVKMGPSHKASFDRSRDCLGHSGQRIGGNDLDIALAMNAFMPHFGLGSLMSNGKPMPSNPFWNAVAVNDISAQREFATLSTRKLIDELIKEAEQPNLLKRLLKVQQQQLSYQIVRLAERAKIALSDAHTTESSLEFIEAMLSAEVNRDCFENAIEPSLGKIEALMHQALTQAAKSLTGNGLAPEELSVEAGTAECQPDVIYVTGGTARSPAIYAKITSLYPDTPVVVGDHFGSVTAGLTRWAQKHFAQ
MGSDKIHHHHHHMFYQLYELNHAALQPARLYADAVRMFYSNPLNPIAHTHWGRSVAAGAELFERTTRRYGKPAFGLDKTVVDWKSVEVTEKTVWSKPFCNLVRFERAMPAGRKPDPKLLIVAPMSGHYATLLRGTVEAMLPYADVHITDWVDARMVPLVDGSFDLDDYIDYIIEMFHALGPDTHVMAVCQPSVPVLAAVALMEAKGDPFVPSTMTLMGGPIDTRRNPTAVNLLAEEKGIDWFRDNVVMRAPWPVPGFGREVYPGFLQLSGFMSMNLDRHIIAHKDFFMHLVKNDGDNAEKHRDFYDEYMAVMDLTAEFYLQTVDTVFVRHALPKGEMKHRGAAIDTSAIRNVALFTVEGENDDISGLGQTKAAQDLCINIPADKKAHYMQPAVGHYGVFNGSRFRSEIVPRIVDFITSYGRQNRVAVKPKLVRTAKR
MGSDKIHHHHHHMGEELPVSQPVDQRPLEHQDHCQAAEPAAMDPPAGEDFYEKDFITYLSDENEQEISRAFIVANPGMVKFHFVDKVYEQLALKDKQVDTAIYSEVLPDPPLSQAIKIAKQMKKFAPDTIIAIGGGSALDVSKIARYIYEYSLDQEDGWLDIYDNVSELIKELQQKFVDIRKRIVKFKHETRTSLVMTRSLKAPS
MGSDKIHHHHHHMGEQQLDCALDLMRRLPPQHCDKNLTDLIDLCPHLVDDLLSTIDQPLKIAADRETGKQYLLCDYNRDGDSYRSPWSNTYDPPLEDGQLPSEKRRKMEIEANAAFESYRDLYFEGGVSSVYFWDLDNGGFAGIVLIKKEGDGAKNITGCWDSIHVIEITERARQAHYKLTSTIMLWLQTNKSSSGVMNLGGSLTRQHEMDAPINDQNTHLANMGRMIEDQESKMRLTINEIYFGKTKKVMSDLRSTEKQSELEKQDEIVRELNNAMANRGN
MGSDKIHHHHHHMGKPHRIALALQGGGVHGAFTWGVLDALLEEAATGKIEFVGVSGASSGALTATAMAYGYHEGAAQPGPASARSRRMAEAARTKIRELWETVARAAFWGGNPFVAAIGLAQDWNIDDTPAARWADVAGGNTPAAESGLGTYLTAVLRDVLPQIPAIFALPQEGTPTLIVAATDIGECRRQLFIDGAVSPDAVRASTNLPTSLHTVSIGDHHYWDGGYMGNPPLTPLVERLRETNAEDLVLVTLNPLHRDGPPPKGGRQVLDRLNEVAFNASLVHEVNAIETINRLVDADMIKEPPPGQHPYRRVNLHRIHADEEMVKLGVYSKDAPAWDFLVYLRDLGRKAFTESWETIRPALGKHSSWDTNSVCDQILARKAITTREK
MGSDKIHHHHHHMGKQQIWKNWWENHTCTPEHYYQPEQIDEVVEIIKSANLEQKQIKVIGSGRSWSDIPCTDGYMISLDKFNQVLDIDIEQKTVIVKSGIRIYQLVDILAKHGLALSSLGSICEQSIAGAISTGTHGNSLHQGGLASSILELELVNGIGEVIKCSKSENPDLFSAALIGLGAIGIITQVKIQCCNQFWLTETLQCWNIKDVLENLDTLKKNDYCRFWYTTTNKDAIVQTFSDSQILEKTGFIHFIKRIITQIFWFLWISWHDNPAEHDSQSFTRKDESQHILCYPRFFLKLYKLSFRMTKYCQNVLISEYGIPEEMASIAMNKILSLVDRGIIKGHLRFEVRFGAAEDVWLSTAYQRPTCYIQVLFEKKNFTSTQDQNDAFIQVENIIKNLAGRPHWAKDHLYTNDDLRSTYPRWQEFLQIRQQTDPQQCFTNSYLNKIFDDVRRTA
MGSDKIHHHHHHMGLFNIFDVAGSGMSAQSLRLNTTASNIANADSVSSSIDKTYRSRHPIFEAEMAKAQSQQQASQGVAVKGIVESDKPLLKEYSPDHPMADGDGFIYKPNVNVMEEMADMISASRSYQMNVQVAEAAKSMLQQTLGMGK
MGSDKIHHHHHHMGLLTNLKDSISRAASTLFSEEDPKRIGIYGPPNAGKTTLANRIARDWTGDAVGPESHVPHETRRARRKENVEIERDGKKVTIDIVDTPGVTTKVDYTEFLEHDMEKDDAVRRSREATEGVAEAMHWLREDVDGVIYVLDSATDPFTQVNTMLIGIIESQDLPVLILANKIDLEESSVQRIRNAYPQHETIPLSALEGDNMDEVYDKIAEYFG
MGSDKIHHHHHHMGLYDLLDAEGKDDQKGKSPGVAVGVVADNQDPEGMGRVKVRFPWKDDADESTWARVVTPMAGKGRGLWFLPEVGDEVLVAFDHGDVQHPYVLGSLWNGTDTPPGDNGDGNNNIRKITSRSGHELVFDDTSGAEKVVIRTKAGHAITLDDAGGGEKIEIKDKSGSNKLVIDSAQNSIGIESSMKLTIKGQMVEIQSDANMTLKAGAVMTIQGSMVKIN
MGSDKIHHHHHHMGMSSDLIKPRRPSTSGCAIHCHDCSMEALCIPFTLNNDELDKLDSIIERKKPIQKGDLIFKSGDVLKSLYAIRSGTIKSYTITEQGDEQITGFHLAGDVIGFDGIHAQRHQSFAQALETSMVCEIPYDTLDDLSGSMPKLRQQIMRLMSNEIMSDQEMILLLSKKNAEERLAAFINNLANRFGNRGFSPHEFRLTMTRGDIGNYLGLTVETISRLLGRFQKSGLIEVKGKYISIIDHSALSTLAGNARIAT
MGSDKIHHHHHHMGNATRIYEKHVDIKKDTVQDFWNKRAKKHIPENPYISVKCNDQNPDYAKNLDKYEKEIIIPKLNITRNSNILDIGCGVGRLADDIVPICNYYLGTDFAEDLISIAKKRFSDNDCDFQVCDFINTLYDTKVKSKMPFDTILLAGVTMYINDDELKIALKNLLGILDKKATIYISIPIGINKRLTLKEFYSKELNSEYNVIYRTIEEYEEILKPLLDEGFEIVESKSFLTDINQYSDTERHYFILKR
MGSDKIHHHHHHMGNFHTMLDALLEDQEEAVLATIVQVEGSAYRKAGASMLFKKKGRRIGLLSGGCVEEDVFQRISALGDQLTSTLIPYDMRSEDDLSWGMGAGCNGIIHVHAERITQEKRRHYEKVRDCLHSGKAVTSVIKIESSHYLFLTENGHFGNWPDAPLQDIQRTVSTLHLPHFDQTTNMFIQRIEPKPRLILFGAGPDNVPLANLAADTGFSVIVTDWRPAYCTSSLFPYAYYLITAFPEQMLSEFQFFPHDAAVVATHHYQHDQTIINFLFSQNLHYIGLLGSANRTKRLLSGKHPPSHFYSPVGLKIGAEGPEEIAVSVVAEIIQTRKRVAVV
MGSDKIHHHHHHMGNKPSGRHYFAEGITNRGYISLLPNMMSEWERTYVLMGGPGTGKSTTIKMIGLDLLDRGYEVDFLRSARDPDSMAGVLIRRFNWAILDHYEIAPLHWRAPGVIEHFVDFSKYCNQGKLEQQRLRVLELGEKIKRGQQRIGEILAEEFGGRIRERFYAKADEGRPWLPKLYASDLFKEAKGPWSKAQDALKKIQKSAVQSFFLHGINPEGWLNLAPYFLTDYDQIRFDGEEAHEAMEWVLQEAEQLGQVIDIVLHPLYPDEILGIVFPERNLAIWQGDPEHLEDQGLGCPFSNDLKKALLDTQRLRDKLKAIYTKTVDFDQVDSMKTDLLSSILRDMDKKVHTID
MGSDKIHHHHHHMGNPRAFLTIHRQEAGYRPVHERIDDFSEVEQTLNSGDRRTQASRCMDCGVPFCHWACPLGNKQPEWQDLLYKGRYKEAYHVLEQTDDFPEFTGRVCPALCEKSCVLKLSCDEPVTIRENEAAIVEAAFREGYVQPIQPVRNGKKVAVIGSGPAGLTVANQLNRKGYEVTVFEKDELPGGLLRFGIPNFKLGKHIIDRRIRIMEQEGILFRVNTMVGKEILAKDVVKDFDAVCVAIGAEVPRDLSIEGRHLRGVHFALELLSQQNRILEGIPIPPKSQINCKGKKVLVIGGGDTGSDCVGTANRHGAACVTQIEIMPQPPVGQNPATPWPMYPQVLKTSSSHEEGCIRRWNLASNRFIGEKNNLIGVEVEEVEWVPSPDGGRPQMRQTGKKEIIEADLVFLAMGFLHPVQEGLIKELRLATDNRNNIAVDNAGYTANSNLFACGDAVSGASLVVKAMASGRNVARSIDRFLQTN
MGSDKIHHHHHHMGSFALPANAQCEAKNDAFQSGEHVMYDLYFNWKFVWVKAGIASLTTNATTYHSEPAYRINLLALGSKRADFFFKMRDTLTCVMGEKLEPRYFRKGAEEGKRYTVDEAWFSYKDGLCFAKQKRTFRDGEVQESEESDSRCIYDMLTILAQARSYDPADYKVGDKIKFPMATGRKVEEQTLIYRGKENVKAENGVTYRCLIFSLVEYDKKGKEKEVITFFVTDDKNHLPVRLDMFLNFGSAKAFLNDVRGHRHPLTSIVK

From the DeepSol protein solubility set
